Reference: patent US20240076389A1 (NATIONAL RESEARCH COUNCIL OF CANADA, published 2024)
One block for each binder: values may come before it.

How the values were obtained:
[1] = molecular target: T1, human AXL expressed on the cell surface of tumor cell lines (human, UniProt P30530 26-894); experiment: cell-based or functional assay
T1 sequence (looked up): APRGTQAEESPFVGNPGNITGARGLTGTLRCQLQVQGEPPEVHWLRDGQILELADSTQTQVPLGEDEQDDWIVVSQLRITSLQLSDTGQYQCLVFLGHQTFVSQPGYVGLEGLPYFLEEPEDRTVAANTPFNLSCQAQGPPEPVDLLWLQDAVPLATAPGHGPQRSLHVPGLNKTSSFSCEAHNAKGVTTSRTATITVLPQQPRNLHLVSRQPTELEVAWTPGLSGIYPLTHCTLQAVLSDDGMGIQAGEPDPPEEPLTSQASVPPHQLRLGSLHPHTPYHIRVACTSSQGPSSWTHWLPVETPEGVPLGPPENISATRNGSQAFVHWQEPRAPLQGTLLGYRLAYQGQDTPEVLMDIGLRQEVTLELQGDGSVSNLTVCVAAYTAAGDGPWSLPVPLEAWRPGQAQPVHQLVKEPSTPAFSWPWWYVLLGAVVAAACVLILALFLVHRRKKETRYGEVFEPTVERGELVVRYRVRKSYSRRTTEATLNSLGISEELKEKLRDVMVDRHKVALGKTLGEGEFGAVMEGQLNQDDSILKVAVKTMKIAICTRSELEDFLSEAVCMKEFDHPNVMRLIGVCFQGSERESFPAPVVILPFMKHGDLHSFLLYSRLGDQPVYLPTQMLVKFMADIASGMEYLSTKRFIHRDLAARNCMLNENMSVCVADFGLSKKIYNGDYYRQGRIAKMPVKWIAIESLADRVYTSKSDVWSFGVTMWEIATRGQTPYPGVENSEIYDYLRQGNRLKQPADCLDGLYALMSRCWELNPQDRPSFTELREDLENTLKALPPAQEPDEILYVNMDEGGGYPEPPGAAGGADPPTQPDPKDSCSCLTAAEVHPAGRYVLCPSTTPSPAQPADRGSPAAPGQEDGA

[2] = molecular target: T1, human AXL expressed on the cell surface …; experiment: cell-based or functional assay; remark: listed apart in the source
[3] = molecular target: T2, recombinant human AXL extracellular domain, C-terminally His8-tagged (rhAXL-ECD) (human, UniProt P30530 26-451); experiment: SPR, VHH-Fc captured, AXL ECD flowed, single-concentration kinetics (estimate)
T2 construct: Made in CHO cells; also called (rh)AXL-ECD His8; human AXL ECD
T2 sequence: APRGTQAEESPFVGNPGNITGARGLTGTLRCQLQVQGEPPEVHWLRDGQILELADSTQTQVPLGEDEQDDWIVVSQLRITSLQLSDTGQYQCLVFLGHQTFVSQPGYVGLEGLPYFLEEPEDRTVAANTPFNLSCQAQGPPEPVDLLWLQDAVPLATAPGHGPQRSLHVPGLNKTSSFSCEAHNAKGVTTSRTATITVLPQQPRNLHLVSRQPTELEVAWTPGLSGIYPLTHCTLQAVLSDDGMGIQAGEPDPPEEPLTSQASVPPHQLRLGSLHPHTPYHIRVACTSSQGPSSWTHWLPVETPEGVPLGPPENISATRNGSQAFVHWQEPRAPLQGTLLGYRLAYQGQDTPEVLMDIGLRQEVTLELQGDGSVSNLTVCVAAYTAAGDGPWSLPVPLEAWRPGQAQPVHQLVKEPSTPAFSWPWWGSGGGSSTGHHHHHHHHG
Experimental: (§1) For VH Hs and VHH-Fcs, binding to human and cynomolgus AXL ECD was assessed using either a Biacore T200 instrument or a Biacore 3000 instrument. Either human AXL ECD or anti-human Fc antibody was immobilized on a research-grade CM5 series S sensor chip (T200, rhAXL ECD) or a C1 sensor chip (3000, anti-human Fc) using amine coupling in acetate buffer. VHH-Fcs were captured on anti-human Fc surfaces. Either monomeric VHHs (for rhAXL ECD surfaces) or human and cyno AXL ECD (for VHH-Fc surfaces) were flowed over the surfaces at different concentration ranges. Running buffers were HBS-EP (3000) and HBS-EP+(T200). Flow rates were 10-40 ul/min. All binding studies were performed at 25° C. Surfaces were regenerated using 10 mM glycine, pH 1.5.

[4] = molecular target: T2, recombinant human AXL extracellular …; experiment: SPR, VHH-Fc captured, AXL ECD flowed, single-cycle kinetics
Experimental: as §1

[5] = molecular target: T1, human AXL expressed on the cell surface …; experiment: FACS on SKOV3 cells, apparent Kd, human Fc format
Experimental: (§2) FACS binding assay. Adherent cells were dissociated with non-enzymatic Sigma Cell Dissociation Solution (Cat. No. C5789). Cells suspensions were added to polypropylene, V-bottom 96-well plates and incubated for 2 hours on ice with primary antibodies at concentrations ranging from 100 nM to 0.001 nM or at a single dose of 100 nM (for the non-specific control). After incubation and washes, cells were incubated with fluorescently labeled secondary antibody (Alexa Fluor® 488 anti-human IgG from Jackson Cat. No 709-546-098) for 1 hour on ice, then washed. Cell viability was determined using Fixable viability dye 450 (20 min on ice). Stained cells were fixed in 1% formaldehyde at 4° C. and stored at 4° C. until acquisition which was performed the next day.
(§3) Binding of recombinant chimeric Abs to three cell lines was assessed by FACS as described above. The apparent Bmax and Kd determination is shown below in Table 14.

[6] = molecular target: T2, recombinant human AXL extracellular …; experiment: ELISA on coated AXL ECD (100 ng/well), VHH-Fc, HRP-protein A
Experimental: (§4) ELISA. ELISAs against human, cyno and mouse AXL ECDs were conducted by immobilizing 100 ng of each protein in wells of Nunc MaxiSorp microplates overnight. Human AXL (aa 1-451) and cyno AXL (aa 1-449) were produced recombinantly as described in Example 10. Mouse AXL was purchased from Sino (cat. 51026-M08H). The next day, plates were blocked with 5% (w/v) dried milk in PBS. Murine mAbs (either hybridoma- or recombinantly-produced) or VHH-Fcs were diluted in PBS containing 1% BSA and 0.1% Tween-20 and added to wells for 2 hours at room temperature. Wells were washed 5× with PBS containing 0.1% Tween-20, then HRP-labeled protein A (diluted 1:1000 in PBS containing 1% BSA and 0.1% Tween™-20) was added to wells for 1 hour at room temperature. Wells were washed again 5× with PBS/0.1% Tween-20 and developed using TMB substrate. Absorbance was measured at 450 nm. As a positive control for mouse AXL binding, a commercial anti-mouse AXL mAb (clone 175128, R&D Systems MAB8541, rat IgG2A) was used and detected with donkey […] secondary antibody.

[7] = molecular target: T1, human AXL expressed on the cell surface …; experiment: FACS on NCI-H292 cells, apparent Kd, human Fc format
Experimental: as §2, §3

[8] = molecular target: T3, mouse AXL extracellular domain (Sino cat. 51026-M08H) (mouse, UniProt Q00993 19-445); experiment: ELISA on coated mouse AXL ECD (100 ng/well), VHH-Fc
T3 construct: extracellular domain; Bought protein; also called mouse AXL ECD
T3 sequence (looked up): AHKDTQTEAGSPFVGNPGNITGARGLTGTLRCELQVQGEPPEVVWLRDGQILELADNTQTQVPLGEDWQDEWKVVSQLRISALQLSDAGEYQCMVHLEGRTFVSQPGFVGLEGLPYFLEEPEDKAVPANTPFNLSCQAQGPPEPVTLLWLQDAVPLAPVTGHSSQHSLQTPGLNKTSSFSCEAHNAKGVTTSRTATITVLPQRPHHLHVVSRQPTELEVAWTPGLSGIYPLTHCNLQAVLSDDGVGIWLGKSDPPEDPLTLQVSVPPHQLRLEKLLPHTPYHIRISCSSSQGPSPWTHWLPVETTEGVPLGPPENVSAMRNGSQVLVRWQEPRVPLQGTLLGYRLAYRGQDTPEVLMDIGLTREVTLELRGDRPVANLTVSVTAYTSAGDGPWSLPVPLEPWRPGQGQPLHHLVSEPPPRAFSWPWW
Experimental: as §4

[9] = molecular target: T1, human AXL expressed on the cell surface …; experiment: FACS on MDA-MB-231 luciferase cells, apparent Kd, human Fc format
Experimental: as §2, §3

[10] = molecular target: T4, cyAXL-ECD displayed on yeast; experiment: yeast surface display ELISA, non-denatured yeast, goat anti-human F(ab')2-HRP
T4 construct: extracellular domain; 'cy' read as cynomolgus

[11] = molecular target: T5, huMER-ECD displayed on yeast (human, UniProt Q12866 21-505); experiment: as above
T5 construct: extracellular domain
T5 sequence (looked up): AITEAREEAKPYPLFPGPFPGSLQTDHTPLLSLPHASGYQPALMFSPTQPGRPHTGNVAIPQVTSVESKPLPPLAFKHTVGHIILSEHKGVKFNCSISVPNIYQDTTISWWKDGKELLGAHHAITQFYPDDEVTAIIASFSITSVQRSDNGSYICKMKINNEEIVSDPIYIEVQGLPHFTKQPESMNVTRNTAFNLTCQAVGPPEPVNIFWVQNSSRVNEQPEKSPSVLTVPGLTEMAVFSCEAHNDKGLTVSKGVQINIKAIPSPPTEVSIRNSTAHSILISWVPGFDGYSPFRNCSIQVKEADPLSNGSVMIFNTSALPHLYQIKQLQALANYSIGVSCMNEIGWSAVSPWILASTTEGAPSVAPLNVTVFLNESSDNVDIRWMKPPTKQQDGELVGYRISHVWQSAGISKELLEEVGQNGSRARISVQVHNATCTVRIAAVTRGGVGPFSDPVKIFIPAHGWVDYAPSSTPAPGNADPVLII

[12] = molecular target: T6, huTyro3-ECD displayed on yeast (human, UniProt Q06418 41-429); experiment: as above
T6 construct: extracellular domain
T6 sequence (looked up): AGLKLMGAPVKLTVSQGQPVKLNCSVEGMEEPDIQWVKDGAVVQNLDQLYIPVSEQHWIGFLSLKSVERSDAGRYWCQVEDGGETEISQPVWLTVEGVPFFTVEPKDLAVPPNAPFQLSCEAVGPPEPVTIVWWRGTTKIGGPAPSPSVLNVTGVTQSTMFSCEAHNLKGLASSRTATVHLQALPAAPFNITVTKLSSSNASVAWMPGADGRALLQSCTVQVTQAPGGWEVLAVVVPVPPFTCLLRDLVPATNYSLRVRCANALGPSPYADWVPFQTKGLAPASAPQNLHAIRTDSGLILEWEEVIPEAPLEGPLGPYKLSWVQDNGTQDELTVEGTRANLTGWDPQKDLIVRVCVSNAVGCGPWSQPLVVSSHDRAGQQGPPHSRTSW

B3: NRC-sdAb002-Fc (VHH-human IgG1 Fc fusion) (Fc fusion)
chain: QVQLVDSGGGLVQAGGSLRLSCATSTRTVSSAVMAWFRQAPEKVRDFVGFITNSGNILYDDSVKGRFTISRDNAQNTVYLQMNSLKPEDTAVYYCAAKWSFSSGYGDLRRAAMYDYWGQGTQVTVSS
notes: VHH fused N-terminally to human IgG1 Fc; also called NRC-sdAb0002-Fc; NRC-sdAb002-hIgG1; not shown: human IgG1 Fc
yeast ELISA signal normalized to myc expression level [10]: 0.76 | yeast ELISA signal normalized to myc expression level [11]: 0.01

B4: NRC-sdAb003-Fc (VHH-human IgG1 Fc fusion) (Fc fusion)
chain: QVQLVESGGGLVQAGGSLRLSCAASGVTLDYTAIGWFRQAPGKERELVAAITSGGNTDYAESAKGRFRISRDNSKNTIYLQMNSLKPEDTGVYYCAARRGGARGEYDYWDQGTQVTVSS
notes: VHH fused N-terminally to human IgG1 Fc; also called NRC-sdAb0003-Fc; NRC-sdAb003-hIgG1; not shown: human IgG1 Fc
yeast ELISA signal normalized to myc expression level [10]: 0.668 | yeast ELISA signal normalized to myc expression level [12]: -0.005 | yeast ELISA signal normalized to myc expression level [11]: -0.009

Continued, values first:

IC50 (read off the curve), growth inhibition of H292 cells, without added Gas6 (circles) [1]: ~0.004 nM | IC50 of growth inhibition (CellTiterGlo, 5 days) of NCI-H292 cells, -Gas6 [2]: 0.013 nM | IC50 of growth inhibition of NCI-H292 cells, +Gas6 (2 µg/mL) [2]: 0.46 nM
B1: hFc-F107-10G1-DM1 (antibody, human IgG1, kappa, V domains shown)
VH: EVNLVESGGGVVKPGASLKLSCEASGFTFSNYGMSWVRQTSDKRLEWVASISGGGGRTYYLDNVKGRFIISRENAKNTLYLQMSSLKSEDTALFYCARGARASYFAMDYWGQGSSVTVSS
VL: VIVMTQSHKFMSTSVGDRVSITCKASQDVTTAVAWYQQKPGQSPKLLIYWASTRHTGVPDRFTGSGSGTDYSLTISNVQTEDLAFYYCQQHFTTPLTFGAGTKLELKR
modifications: DM1 through SMCC linker on lysine residues; sites not given

Kd [3]: 2 nM | koff [3]: 0.0082 s⁻¹ | kon [3]: 5.3e+06 M⁻¹ s⁻¹ | Kd [4]: 1 nM | koff [4]: 0.0033 s⁻¹ | kon [4]: 3.3e+06 M⁻¹ s⁻¹ | Kd [5]: 0.0549 nM | EC50 [6]: 1 nM | Kd [7]: 0.0414 nM | binding result [8]: no binding | Kd [9]: 0.122 nM
B2: NRC-sdAb008-Fc (VHH-human IgG1 Fc fusion) (Fc fusion)
chain: QVKLEESGGGLVQAGGSLRLSCAASGSSGMINTMGWYRQAPGKQRELVARRSTGGTTNYADSVKGRFTISRDDANNTVYLQMNSLKPEDTAVYYCAIIWRTSDLTGRFNTWGQGTQVTVSS
notes: VHH fused N-terminally to human IgG1 Fc; also called NRC-sdAb008-hIgG1; not shown: human IgG1 Fc
